{"source": "paper doi:10.1101/2021.04.09.439147", "about": "(bioRxiv, 2021)", "binders": {"B1": {"name": "FLAG-tagged K-874A (VHH)", "VHH": "EVQLVESGGGQVETGGSLRLSCQASGSTFSDYVMAWFRQRPGKEREFVATISRNGGTTTYGSSVKGRFTISRDNAKSTVYLQMNSLKPEDTAVYYCYAVGGDGDSWGQGTQVTVSS", "notes": "also called CoVHH1-FLAG"}}, "biological_target": "T1, SARS-CoV-2 S1 subunits-His tag (SARS-CoV-2, reference assumed, UniProt P0DTC2)", "T1 construct": "source: bought: Sino Biological", "assay": "ELISA", "conditions": "both partners purified"}
{"binder": "B1", "values": [{"measurement": "binding result", "result": "binds"}]}
